The supplement of paper PMC10724198
± gives the standard deviation of the averaged measurements.

How the values were obtained:
Saccharomyces cerevisiae [1] = experiment: protein stability index of tFT-peptide fusion (C-terminal peptide) (PSI (0-1 scale)); higher = more stable (slower turnover)
Method: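 MPS profiling in S. cerevisiae of the tFT-X12 degron library: putative degron peptides plus stable controls, 12 aa, fused to the C-terminus of a sfGFP-mCherry timer. Cells are FACS-sorted into 8 mCherry/sfGFP bins and deep-sequenced. PSI runs from 0 (unstable) to 1 (stable). Backgrounds are wild type, das1Δ and doa10Δ at 30 °C, and wild type, das1Δ, cdc34-1 and cdc53-1 at 37 °C; 2-3 technical replicates each.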

Saccharomyces cerevisiae [2] = experiment: as above; settings: genetic background: wild type; temperature: 30 C
[3] = genetic background: cdc34-1, temperature: 37 C
[4] = genetic background: cdc53-1, temperature: 37 C
[5] = genetic background: das1 deletion, temperature: 30 C
[6] = genetic background: das1 deletion, temperature: 37 C
[7] = genetic background: doa10 deletion, temperature: 30 C
[8] = genetic background: wild type, temperature: 30 C
[9] = genetic background: wild type, temperature: 37 C
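Further: PSI is a weighted mean of sequencing reads over stability bins, variants kept only with over 10 reads, mCherry proximal and sfGFP distal, peptide attached via GGGS linker.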

Sequence | protein stability index (Saccharomyces cerevisiae [1]; [3]) | protein stability index (Saccharomyces cerevisiae [1]; [4]) | protein stability index (Saccharomyces cerevisiae [1]; [5]) | protein stability index (Saccharomyces cerevisiae [1]; [6]) | protein stability index (Saccharomyces cerevisiae [1]; [7]) | protein stability index (Saccharomyces cerevisiae [1]; [8]) | protein stability index (Saccharomyces cerevisiae [1]; [9]) | protein stability index (Saccharomyces cerevisiae [2])
LWAVGWIIYFIV | 0.0967 ± 0.0059 | 0.245 ± 0.014 | 0.211 ± 0.028 | 0.362 ± 0.0042 | 0.106 ± 0.026 | 0.106 ± 0.011 | 0.0941 ± 0.006 | 0.172 ± 0.024
LWLISTYQLIGI | 0.454 ± 0.021 | 0.583 ± 0.048 | 0.433 ± 0.011 | 0.5727 ± 0.0033 | 0.431 ± 0.022 | 0.451 ± 0.0091 | 0.536 ± 0.034 | 0.521 ± 0.032
MALAVRVVWCGA | 0.179 ± 0.014 | 0.179 ± 0.024 | 0.204 ± 0.034 | 0.328 ± 0.0034 | 0.173 ± 0.0053 | 0.207 ± 0.025 | 0.295 ± 0.0084 | 0.269 ± 0.014
MCFFVFVLFLFC | 0.307 ± 0.034 | 0.398 ± 0.12 | 0.281 ± 0.029 | 0.406 ± 0.013 | 0.2977 ± 0.0013 | 0.269 ± 0.033 | 0.377 ± 0.011 | 0.33 ± 0.015
MLVWCLFWVACV | 0.203 ± 0.026 | 0.29 ± 0.0085 | 0.22 ± 0.028 | 0.355 ± 0.01 | 0.148 ± 0.011 | 0.168 ± 0.025 | 0.258 ± 0.0057 | 0.236 ± 0.0031
MRMEGPLALSVR | 0.5519 ± 0.005 | 0.558 ± 0.016 | 0.395 ± 0.028 | 0.558 ± 0.0087 | 0.353 ± 0.019 | 0.403 ± 0.017 | 0.551 ± 0.006 | 0.48 ± 0.011
MRVCLCLMLIVN | 0.179 ± 0.024 | 0.282 ± 0.031 | 0.214 ± 0.018 | 0.372 ± 0.0069 | 0.143 ± 0.022 | 0.148 ± 0.028 | 0.238 ± 0.0029 | 0.238 ± 0.033
NARNPKKNRDQI | 0.697 ± 0.037 | 0.7226 ± 0.0072 | 0.627 ± 0.026 | 0.705 ± 0.032 | 0.633 ± 0.02 | 0.666 ± 0.058 | 0.70322 ± 0.00025 | 0.524 ± 0.093
NFFYLFLSFGFG | 0.523 ± 0.076 | 0.565 ± 0.034 | 0.48 ± 0.025 | 0.588 ± 0.0086 | 0.46 ± 0.029 | 0.482 ± 0.03 | 0.552 ± 0.0068 | 0.436 ± 0.022
NGSCRVVMYIKG | 0.667 ± 0.014 | 0.731 ± 0.022 | 0.592 ± 0.025 | 0.717 ± 0.014 | 0.588 ± 0.027 | 0.61 ± 0.0079 | 0.662 ± 0.017 | 0.552 ± 0.08
NKEEHQQKQRIH | 0.636 ± 0.04 | 0.711 ± 0.02 | 0.663 ± 0.02 | 0.719 ± 0.031 | 0.619 ± 0.057 | 0.646 ± 0.049 | 0.698 ± 0.00079 | 0.461 ± 0.15
NKTTKNKKRKLS | 0.467 ± 0.081 | 0.612 ± 0.048 | 0.697 ± 0.027 | 0.656 ± 0.0059 | 0.0924 ± 0.038 | 0.125 ± 0.067 | 0.173 ± 0.011 | 0.159 ± 0.014
NKYNQFKWHINH | 0.624 ± 0.12 | 0.698 ± 0.014 | 0.624 ± 0.026 | 0.742 ± 0.019 | 0.134 ± 0.034 | 0.136 ± 0.0086 | 0.295 ± 0.031 | 0.295 ± 0.0036
NRLHYSPLYTIY | 0.641 ± 0.087 | 0.735 ± 0.033 | 0.653 ± 0.0076 | 0.753 ± 0.0065 | 0.111 ± 0.011 | 0.153 ± 0.015 | 0.256 ± 0.0026 | 0.239 ± 0.0099
NSFASFVVVFVI | 0.371 ± 0.018 | 0.437 ± 0.047 | 0.264 ± 0.034 | 0.512 ± 0.015 | 0.1956 ± 0.00071 | 0.227 ± 0.036 | 0.472 ± 0.03 | 0.34 ± 0.036
NTDRRNICKISS | 0.493 ± 0.031 | 0.671 ± 0.059 | 0.631 ± 0.02 | 0.733 ± 0.0086 | 0.105 ± 0.0079 | 0.1084 ± 0.00051 | 0.169 ± 0.0083 | 0.163 ± 0.044
NTREGFIILARA | 0.523 ± 0.014 | 0.537 ± 0.018 | 0.369 ± 0.03 | 0.573 ± 0.022 | 0.296 ± 0.0041 | 0.349 ± 0.066 | 0.5303 ± 0.0025 | 0.529 ± 0.065
PACFPPPSPFAP | 0.643 ± 0.056 | 0.741 ± 0.026 | 0.712 ± 0.015 | 0.7326 ± 0.0022 | 0.718 ± 0.019 | 0.696 ± 0.029 | 0.725 ± 0.022 | 0.44 ± 0.034
PFDTPSHPNPLF | 0.707 ± 0.034 | 0.789 ± 0.086 | 0.69 ± 0.026 | 0.777 ± 0.024 | 0.711 ± 0.026 | 0.729 ± 0.014 | 0.762 ± 0.019 | 0.744 ± 0.037
PFGYYLFVPVCY | 0.29 ± 0.0094 | 0.343 ± 0.021 | 0.265 ± 0.029 | 0.3985 ± 0.00045 | 0.238 ± 0.0039 | 0.25 ± 0.027 | 0.364 ± 0.0044 | 0.349 ± 0.0044

Sequence | protein stability index (Saccharomyces cerevisiae [1]; [3]) | protein stability index (Saccharomyces cerevisiae [1]; [4]) | protein stability index (Saccharomyces cerevisiae [1]; [5]) | protein stability index (Saccharomyces cerevisiae [1]; [6]) | protein stability index (Saccharomyces cerevisiae [1]; [7]) | protein stability index (Saccharomyces cerevisiae [1]; [8]) | protein stability index (Saccharomyces cerevisiae [1]; [9]) | protein stability index (Saccharomyces cerevisiae [2])
PFLPFPPPLPAY | 0.4873 ± 0.0045 | 0.553 ± 0.015 | 0.394 ± 0.026 | 0.5646 ± 0.0038 | 0.362 ± 0.0056 | 0.408 ± 0.018 | 0.5079 ± 0.0042 | 0.0909 ± 0.028
PFYAYHFSLSVY | 0.13 ± 0.006 | 0.164 ± 0.0048 | 0.103 ± 0.028 | 0.227 ± 0.015 | 0.0245 ± 0.0025 | 0.0234 ± 0.0066 | 0.0924 ± 0.0037 | 0.0344 ± 0.01
PIFFFGRLLFFL | 0.545 ± 0.045 | 0.592 ± 0.022 | 0.467 ± 0.0098 | 0.5856 ± 0.0046 | 0.3094 ± 0.0008 | 0.314 ± 0.014 | 0.499 ± 0.074 | 0.369 ± 0.016
PLCCFFLLVCSH | 0.117 ± 0.022 | 0.166 ± 0.005 | 0.193 ± 0.019 | 0.2814 ± 0.002 | 0.165 ± 0.0015 | 0.176 ± 0.0079 | 0.221 ± 0.014 | 0.246 ± 0.023
PLFPPTDSPSPN | 0.7098 ± 0.0063 | 0.729 ± 0.051 | 0.668 ± 0.025 | 0.724 ± 0.018 | 0.685 ± 0.025 | 0.648 ± 0.015 | 0.709 ± 0.029 | 0.727 ± 0.03
PLFVLTILLFLC | 0.165 ± 0.042 | 0.314 ± 0.036 | 0.258 ± 0.051 | 0.367 ± 0.017 | 0.156 ± 0.0098 | 0.137 ± 0.013 | 0.179 ± 0.0024 | 0.1706 ± 0.00068
PLGGLVILLLSS | 0.488 ± 0.017 | 0.541 ± 0.0075 | 0.349 ± 0.028 | 0.548 ± 0.014 | 0.194 ± 0.0033 | 0.224 ± 0.017 | 0.4074 ± 0.00071 | 0.293 ± 0.014
PLLALTSWLFFV | 0.5467 ± 0.0033 | 0.6521 ± 0.0011 | 0.586 ± 0.012 | 0.689 ± 0.022 | 0.165 ± 0.0048 | 0.173 ± 0.0033 | 0.268 ± 0.0046 | 0.254 ± 0.008
PLPHTPAPPPFP | 0.6774 ± 0.0011 | 0.728 ± 0.0098 | 0.6492 ± 0.0043 | 0.721 ± 0.036 | 0.674 ± 0.034 | 0.676 ± 0.033 | 0.6992 ± 0.0033 | 0.508 ± 0.043
PLSRLLPLYFLL | 0.405 ± 0.015 | 0.547 ± 0.00061 | 0.548 ± 0.017 | 0.66444 ± 0.00057 | 0.0797 ± 0.0046 | 0.0647 ± 0.0097 | 0.0945 ± 0.018 | 0.0966 ± 0.0083
PPHPLHIPRRLA | 0.631 ± 0.025 | 0.724 ± 0.026 | 0.691 ± 0.02 | 0.743 ± 0.017 | 0.185 ± 0.0086 | 0.218 ± 0.022 | 0.436 ± 0.048 | 0.226 ± 0.033
PPLSRLAVFIVV | 0.4397 ± 0.0027 | 0.487 ± 0.052 | 0.359 ± 0.036 | 0.524 ± 0.008 | 0.3027 ± 0.0018 | 0.353 ± 0.025 | 0.4823 ± 0.003 | 0.4605 ± 0.0023
PPRPSPPPHPLP | 0.658 ± 0.028 | 0.7181 ± 0.0022 | 0.6737 ± 0.003 | 0.727 ± 0.011 | 0.681 ± 0.017 | 0.686 ± 0.01 | 0.6974 ± 0.0035 | 0.746 ± 0.059
PPVRCVRLPLSS | 0.687 ± 0.035 | 0.744 ± 0.0097 | 0.649 ± 0.029 | 0.717 ± 0.01 | 0.647 ± 0.015 | 0.6376 ± 0.0037 | 0.689 ± 0.0054 | 0.63 ± 0.26
PRFRALLLIPVR | 0.0611 ± 0.016 | 0.158 ± 0.029 | 0.178 ± 0.046 | 0.281 ± 0.022 | 0.14 ± 0.026 | 0.17 ± 0.018 | 0.24 ± 0.033 | 0.27 ± 0.012
PRGFVRVDLLIF | 0.302 ± 0.021 | 0.481 ± 0.07 | 0.273 ± 0.027 | 0.442 ± 0.017 | 0.191 ± 0.0062 | 0.208 ± 0.031 | 0.37 ± 0.022 | 0.383 ± 0.064
PRGKGSSGELCV | 0.683 ± 0.038 | 0.7344 ± 0.0044 | 0.662 ± 0.025 | 0.707 ± 0.03 | 0.6363 ± 0.0063 | 0.647 ± 0.033 | 0.712 ± 0.012 | 0.578 ± 0.15
PRPISRRTLILS | 0.642 ± 0.047 | 0.7053 ± 0.0034 | 0.545 ± 0.026 | 0.721 ± 0.0088 | 0.308 ± 0.0098 | 0.354 ± 0.023 | 0.554 ± 0.02 | 0.472 ± 0.062
PRVPILVVFCSF | 0.423 ± 0.013 | 0.452 ± 0.014 | 0.286 ± 0.041 | 0.532 ± 0.016 | 0.22 ± 0.0097 | 0.257 ± 0.02 | 0.463 ± 0.048 | 0.402 ± 0.063
